Columns and labels:
[1] = target: T1, membrane-bound human BCMA (human, UniProt Q02223 1-184); assay: flow cytometry on MM.1S cells (endogenous BCMA), printed as apparent affinity
T1 construct: whole, on cells; also called huBCMA
T1 sequence (looked up): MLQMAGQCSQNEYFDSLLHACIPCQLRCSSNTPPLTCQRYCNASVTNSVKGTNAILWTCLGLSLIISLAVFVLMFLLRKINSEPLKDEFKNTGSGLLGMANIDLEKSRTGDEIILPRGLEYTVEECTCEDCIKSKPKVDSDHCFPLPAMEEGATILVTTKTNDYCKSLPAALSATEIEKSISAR
Experimental: (§1) Binding of 15B2GL, I09, L15, and J6M0 to membrane-bound human BCMA was evaluated using flow cytometry in multiple myeloma and plasma cell leukemia cell lines that endogenously express BCMA (NCI-H929 and MM.1S, respectively). Binding of 15B2GL, 109, L15 to membrane-bound human BCMA was also evaluated in Ad293 cells expressing human BCMA. Binding assays were performed by incubating the anti-BCMA antibodies with 200,000 cells for 30 minutes at 4° C. followed by two washes with PBS+2% FBS (FACS Buffer). A range of antibody concentrations were evaluated using a 12-point, 3-fold dilution series. Cells were then incubated with 5 ug/mL goat-anti human IgG-AF647 secondary antibodies (Thermo Fisher Scientific, Waltham, Mass.) at 4° C., followed by two washes in PBS+2% FBS. Cells were resuspended in 200 uL PBS+2% FBS+DAPI.
(§2) Fluorescence of live, single cells was measured using a BD Biosciences LSRII cytometer and BD FACSDiva™ software (BD Biosciences, San Jose, Calif.). Data were analyzed using FlowJo™ software (FlowJo, LLC, Ashland, Oreg.). Mean fluorescence intensity values were used to determine percentage bound and EC50 was determined using Prism™ software (GraphPad Software Inc, La Jolla, Calif.).

[2] = target: T2, monomeric human sBCMA (GenScript) (human, UniProt Q02223 1-54); assay: SPR (ProteOn XPR36), antibody captured by anti-Fc, sBCMA 100-6.25 nM as analyte
T2 construct: extracellular domain; also called monomeric BCMA; monomeric (soluble) BCMA
T2 sequence (looked up): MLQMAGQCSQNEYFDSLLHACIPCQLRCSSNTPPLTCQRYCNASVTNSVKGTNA
Experimental: The binding of 15B2GL monoclonal antibody and optimized clones I09, L15, P10, N22, and M02 (described in Example 1) was assessed using monomeric human sBCMA (GenScript, Piscataway, N.J.) using a ProteOn™ XPR36 instrument (Bio-Rad, Hercules, Calif.). The binding of J6M0 also was assessed for comparison. Standard amine coupling was used to immobilize 25 μg/ml anti-Fc polyclonal antibody (Jackson ImmunoResearch, West Grove, Pa.) prepared in 10 mM sodium acetate buffer (pH 4.5) to the surface of a ProteOn™ GLC biosensor chip (Bio-Rad, Hercules, Calif.) pre-activated with 20 mM EDAC (1-ethyl-3-(3-dimethylaminopropyl)carbodiimide hydrochloride) and 5 mM Sulfo-NHS (N-hydroxysulfosuccinimide) at a density of ˜200-600 resonance units (RU). 15B2GL, I09, L15, P10, N22, M02, and J6M0 were subsequently injected at a concentration of 1 μg/ml for capture by the immobilized anti-Fc polyclonal antibody. The sensorgram was recorded by flowing two-fold serial dilutions of sBCMA prepared in PBS (pH 7.4) with 0.005% (v/v) Tween®-20, ranging from 100-6.25 nM, over the captured surface for 150 seconds at 75 μL/minute with dissociation time of 600 seconds. ProteOn™ data analysis software was used to analyze the data.

[3] = target: T3, TACI stably expressed on Ad293 cells (Homo sapiens (Human), UniProt O14836 1-293); assay: FACS on Ad293 cells stably expressing TACI, Alexa Fluor 647 secondary antibody, raw MFI (geo mean)
T3 sequence: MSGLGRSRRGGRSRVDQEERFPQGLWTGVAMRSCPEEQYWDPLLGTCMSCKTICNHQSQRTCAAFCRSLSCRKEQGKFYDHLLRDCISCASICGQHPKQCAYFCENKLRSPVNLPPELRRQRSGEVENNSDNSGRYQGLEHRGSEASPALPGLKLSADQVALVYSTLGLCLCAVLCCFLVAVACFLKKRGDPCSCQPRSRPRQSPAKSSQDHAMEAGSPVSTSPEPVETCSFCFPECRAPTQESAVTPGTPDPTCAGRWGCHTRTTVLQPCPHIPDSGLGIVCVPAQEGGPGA
Experimental: (§3) Antibodies 4679, 756, and 15B2GL (as described below) were analyzed by FACS to evaluate binding of antibodies to human BCMA, cynomolgus monkey BCMA, TACI, and BAFF-R using recombinant forms of the receptors stably expressed on Ad293 cells. Binding assays were performed by incubating antibodies 4679, 756, and 15B2GL with 200,000 cells at 4° C. for 45 minutes followed by two washes with PBS+2% FBS. Cells were then incubated with Alexa-Fluor® 647-labeled secondary antibodies at 4° C., followed by two washes in PBS+2% FBS. Anti-BAFF-R, anti-TACI, and anti-human BCMA-APC labeled antibodies were added according to manufacturer's recommended dilution in control wells. Cells were resuspended in 200 uL PBS+2% FBS+DAPI and antibody binding to live cells was analyzed using a Becton Dickinson™ Biosciences LSRII cytometer.

[4] = target: T4, cynomolgus monkey BCMA stably expressed on Ad293 cells (cynomolgus monkey, UniProt A0A2K5UD97 1-183); assay: FACS on Ad293 cells stably expressing cynomolgus BCMA, Alexa Fluor 647 secondary antibody, raw MFI (geo mean)
T4 construct: whole, on cells; also called cynoBCMA; Cyno BCMA
T4 sequence (A0A2K5UD97 entry or part of it): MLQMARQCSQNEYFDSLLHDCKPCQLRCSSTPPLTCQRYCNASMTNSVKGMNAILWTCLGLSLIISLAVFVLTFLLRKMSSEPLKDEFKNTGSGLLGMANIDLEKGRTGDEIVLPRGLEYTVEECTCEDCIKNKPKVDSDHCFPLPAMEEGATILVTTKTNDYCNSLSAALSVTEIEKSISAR
Experimental: as §3

[5] = target: T1, membrane-bound human BCMA; assay: flow cytometry on Ad293 cells expressing human BCMA, printed as apparent affinity
Experimental: as §1, §2

[6] = target: T5, BAFF-R stably expressed on Ad293 cells (Homo sapiens (Human), UniProt Q96RJ3 1-184); assay: FACS on Ad293 cells stably expressing BAFF-R, Alexa Fluor 647 secondary antibody, raw MFI (geo mean)
T5 sequence: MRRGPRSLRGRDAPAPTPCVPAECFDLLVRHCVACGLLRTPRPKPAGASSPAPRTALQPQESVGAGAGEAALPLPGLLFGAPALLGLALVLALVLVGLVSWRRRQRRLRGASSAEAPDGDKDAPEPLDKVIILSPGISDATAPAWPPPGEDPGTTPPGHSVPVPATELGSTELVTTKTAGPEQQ
Experimental: as §3

[7] = target: T1, membrane-bound human BCMA; assay: flow cytometry on NCI-H929 cells (endogenous BCMA), printed as apparent affinity
Experimental: as §1, §2

[8] = target: T1, membrane-bound human BCMA; assay: FACS on Ad293 cells stably expressing human BCMA, Alexa Fluor 647 secondary antibody, raw MFI (geo mean)
Experimental: as §3

B1: 15B2GL monoclonal antibody (antibody, V domains shown)
VH: EVQLVESGGGLVKPGGSLRLSCAASGFTFRSYSMNWVRQAPGKGLEWVSSISGSSNYIYYADSVKGRFTISRDNAKNSLYLQMNSLRAEDTAVYYCARGGNYYVEYFQYWGQGTLVTVSS
VL: EIVLTQSPGTLSLSPGERATLSCRASQYISSNYLAWYQQKPGQAPRLLIYGASNRATGIPDRFSGSGSGTDFTLTISRLEPEDFAVYYCQQYGSSPITFGQGTKLEIK
notes: Clone 15B2 was converted into human IgG1 and germlined at four residues (15B2GL); also called germlined 15B2
[1]
  EC50: 2.56 nM
[2]
  Kd: 60.7 nM
[3]
  binding result: no binding (tested: 100 ug/mL)
[4]
  EC50 (read off the curve): ~1 µg/mL
[5]
  EC50: 3.87 nM
[6]
  binding result: no binding (tested: 100 ug/mL)
[7]
  EC50: 3.14 nM
[8]
  EC50 (read off the curve): ~0.6 µg/mL

Source: patent publication US20210214460A1 (AstraZeneca / MedImmune, published 2021)
